Results from patent publication US20150246949A1, “Desmoglein 2 (DSG2) Binding Proteins and Uses Therefor” (UNIVERSITY OF WASHINGTON THROUGH ITS CENTER FOR …, priority 2012, published 2015).
Substitutions are numbered along the chain they refer to. Numbers in names are those of the source. Entries after “also recorded” stand apart in the source; their conditions may differ.

T1: soluble CD46 (UniProt P15529 35-343)
T1 construct: also called sCD46
T1 sequence: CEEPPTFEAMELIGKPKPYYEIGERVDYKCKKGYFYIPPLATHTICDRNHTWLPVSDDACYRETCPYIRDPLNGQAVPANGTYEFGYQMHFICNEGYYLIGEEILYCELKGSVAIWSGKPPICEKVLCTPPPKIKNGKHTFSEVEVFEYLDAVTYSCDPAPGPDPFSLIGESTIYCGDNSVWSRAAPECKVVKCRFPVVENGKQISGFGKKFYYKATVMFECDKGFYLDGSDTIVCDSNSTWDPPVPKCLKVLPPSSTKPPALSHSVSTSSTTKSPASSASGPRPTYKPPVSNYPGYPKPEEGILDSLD

T2: Recombinant human DSG2 protein (Leinco Technologies) (human, UniProt Q14126 50-609)
T2 construct: also called soluble DSG2; soluble recombinant DSG2
T2 sequence: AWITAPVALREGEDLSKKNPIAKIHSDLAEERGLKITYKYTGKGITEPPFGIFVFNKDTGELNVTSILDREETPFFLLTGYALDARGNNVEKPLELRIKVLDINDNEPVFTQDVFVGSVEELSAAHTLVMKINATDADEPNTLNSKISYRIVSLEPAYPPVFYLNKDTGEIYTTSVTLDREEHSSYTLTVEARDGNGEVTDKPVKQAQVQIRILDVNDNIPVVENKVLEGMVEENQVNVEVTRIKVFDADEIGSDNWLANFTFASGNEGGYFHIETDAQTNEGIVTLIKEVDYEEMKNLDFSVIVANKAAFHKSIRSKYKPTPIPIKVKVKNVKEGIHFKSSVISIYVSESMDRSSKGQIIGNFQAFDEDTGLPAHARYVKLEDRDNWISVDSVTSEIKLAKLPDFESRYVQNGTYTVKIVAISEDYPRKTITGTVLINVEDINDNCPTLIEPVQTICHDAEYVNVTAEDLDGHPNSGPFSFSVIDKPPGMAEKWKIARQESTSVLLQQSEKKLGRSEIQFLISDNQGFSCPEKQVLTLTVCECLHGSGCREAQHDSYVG

B1: Ad3-S5/Kn (ligand)
chain: GSLQLKVGSGLTVDTTDGSLEENIKVNTPLTKSNHSINLPIGNGLQIEQNKLCSKLGNGLTFDSSNSIALKNNTLWTGPKPEANCIIEYGKQNPDSKLTLILVKNGGIVNGYVTLMGASDYVNTLFKNKNVSINVELYFDATGHILPDSSSLKTDLELKYKQTADFSARGFMPSTTAYPFVLPNAGTHNENYIFGQCYYKASDGALFPLEVTVMLNKRLPDSRTSYVMTFLWSLNAGLAPETTQATLITSPFTFSYIREDD
notes: also called wild-type Ad3 fibers
B2: N186D (protein)
chain: MKVSALKEKVSALKEKVSALKEKVSALKEKVSALKEGSGGGSGGGSGGGSNSIALKNNTLWTGPKPEANCIIEYGKQNPDSKLTLILVKNGGIVNGYVTLMGASDYVNTLFKDKNVSINVELYFDATGHILPDSSSLKTDLELKYKQTADFSARGFMPSTTAYPFVLPNAGTHNENYIFGQCYYKASDGALFPLEVTVMLNKRLPDSRTSYVMTFLWSLNAGLAPETTQATLITSPFTFSYIREDD
B3: E299V (protein)
chain: B2 chain with D113N, E226V
B4: JO-2: affinity enhanced version of JO-1; printed Y293D, Kd fits V239D; b41 links JO-2 to K217E/F224S (protein)
chain: B2 chain with D113N, V166D
B5: K217E+F224S (protein)
chain: B2 chain with D113N, K144E, F151S
B6: Ad3-S3/Kn (ligand)
chain: HSINLPIGNGLQIEQNKLCSKLGNGLTFDSSNSIALKNNTLWTGPKPEANCIIEYGKQNPDSKLTLILVKNGGIVNGYVTLMGASDYVNTLFKNKNVSINVELYFDATGHILPDSSSLKTDLELKYKQTADFSARGFMPSTTAYPFVLPNAGTHNENYIFGQCYYKASDGALFPLEVTVMLNKRLPDSRTSYVMTFLWSLNAGLAPETTQATLITSPFTFSYIREDD
notes: as for B1
B7: Ad3-S2/Kn (ligand)
chain: KLCSKLGNGLTFDSSNSIALKNNTLWTGPKPEANCIIEYGKQNPDSKLTLILVKNGGIVNGYVTLMGASDYVNTLFKNKNVSINVELYFDATGHILPDSSSLKTDLELKYKQTADFSARGFMPSTTAYPFVLPNAGTHNENYIFGQCYYKASDGALFPLEVTVMLNKRLPDSRTSYVMTFLWSLNAGLAPETTQATLITSPFTFSYIREDD
notes: as for B1
B8: Ad3-S6/Kn (ligand)
chain: GVLSLKCVNPLTTASGSLQLKVGSGLTVDTTDGSLEENIKVNTPLTKSNHSINLPIGNGLQIEQNKLCSKLGNGLTFDSSNSIALKNNTLWTGPKPEANCIIEYGKQNPDSKLTLILVKNGGIVNGYVTLMGASDYVNTLFKNKNVSINVELYFDATGHILPDSSSLKTDLELKYKQTADFSARGFMPSTTAYPFVLPNAGTHNENYIFGQCYYKASDGALFPLEVTVMLNKRLPDSRTSYVMTFLWSLNAGLAPETTQATLITSPFTFSYIREDD
notes: as for B1
B9: Ad3-S4/Kn (ligand)
chain: GSLEENIKVNTPLTKSNHSINLPIGNGLQIEQNKLCSKLGNGLTFDSSNSIALKNNTLWTGPKPEANCIIEYGKQNPDSKLTLILVKNGGIVNGYVTLMGASDYVNTLFKNKNVSINVELYFDATGHILPDSSSLKTDLELKYKQTADFSARGFMPSTTAYPFVLPNAGTHNENYIFGQCYYKASDGALFPLEVTVMLNKRLPDSRTSYVMTFLWSLNAGLAPETTQATLITSPFTFSYIREDD
notes: as for B1
B10: wt Ad3 fiber knob without dimerization domain (ligand)
chain: NKLCSKLGNGLTFDSSNSIALKNNTLWTGPKPEANCIIEYGKQNPDSKLTLILVKNGGIVNGYVTLMGASDYVNTLFKNKNVSINVELYFDATGHILPDSSSLKTDLELKYKQTADFSARGFMPSTTAYPFVLPNAGTHNENYIFGQCYYKASDGALFPLEVTVMLNKRLPDSRTSYVMTFLWSLNAGLAPETTQATLITSPFTFSYIREDD
notes: range 108-319; also called wt Ad3knob/noDD; wt Ad3 knob (noDD); not shown: N-terminal 6-His tag of pQE30 and the Gly/Ser linker encoded by primer P1

How the values were obtained:
soluble CD46 = target: T1, soluble CD46; experiment: Western blot, soluble CD46 as probe, anti-CD46 mAb
[1] = test system: polarized colon cancer T84 cells; experiment: Transepithelial electrical resistance (TEER) permeability assay; type: cell-based; conditions: for Effect on TEER: 5 μg dimeric Ad3 fiber knob added 1 hour to apical chamber; for TEER compared to JO-1: dimeric affinity-enhanced mutants, TEER at 4 hours, N=3
Experimental: (§1) FIG. 5. Correlation of reduced DSG2 binding with the ability to open epithelial junctions. A) Transepithelial electrical resistance (TEER) measured on polarized colon cancer T84 cells. Cells were cultured in transwell chambers until the TEER was constant, i.e. tight junctions had formed. A total of 5 μg of dimeric Ad3 fiber knobs in PBS was then added for 1 hour to the apical chamber. TEER was measured at the indicated time points. N=6. For time points 1.5 and 4 hours the difference between JO-1 vs D261N and N186D was significant (p<0.01). The arrows indicate the addition and removal of Ad3 fiber knobs. B) Enhancement of irinotecan therapy. A total of 4×10^6 A549 cells were injected subcutaneously into CB17-SCID/beige mice. Once the tumor reached a volume of ˜100 mm^3 (day 15 after implantation), the mice were injected intravenously with 2 mg/kg JO-1, E299V, N186D, or PBS, followed by an intravenous injection of irinotecan (37.5 mg/kg) one hour later. The treatment was repeated on day 25. N=5. […] The difference between “irinotecan” vs “JO-1+irinotecan” was significant (p<0.01) from day 20 on.
FIG. 9. Analysis of dimeric Ad3 fiber knob mutants with increased affinity to DSG2. A) Competition of Ad3-GFP virus infection on HeLa cells with dimeric affinity-enhanced mutant Y250F and JO-1 (dimeric wt Ad3 fiber knob). The experimental setting is as described for FIG. 3C. left panel: percentage of GFP positive cells. Right panel: mean fluorescence intensity. N=3. The standard deviation was less than 10%. B) Competition of Ad3-GFP virus infection on HeLa cells by Ad3 knob mutants with enhanced DSG2 binding but without dimerization domain. 1.5×10^5 HeLa cells were seeded into 24 well plates. Cells were incubated with the Ad3 knob mutants at the increasing concentrations for one hour at room temperature. 100 pfu/cell of Ad3GFP virus were then added and GFP expression was analyzed 18 hours later. C) TEER on colon cancer T84 cells. The experimental setting was the same as for FIG. 5A. The TEER at 4 hours is shown. N=3.
A total of 5×10^5 T84 cells were seeded in 12 mm transwell inserts (PET membrane, with 0.4 μm pore size (Corning, N.Y.) and cultured for >14 days until transepithelial electrical resistance (TEER) was stable. Culture medium was changed every 2-3 days. The cells were exposed to DSG2 ligands (20 μg/ml) in adhesion medium (DMEM, 1% FBS, 2 mM MgCl2, 20 mM HEPES) for 15 min at room temperature and TEER was measured and calculated as described elsewhere (39).

A549 xenograft tumors = experiment: Enhancement of irinotecan therapy in A549 xenograft tumors; type: in vivo, CB17-SCID/beige mice; conditions: 2 mg/kg i.v. one hour before irinotecan 37.5 mg/kg i.v.; days 15 and 25; N=5
Experimental: as §1
FIG. 10. Combination of affinity-enhanced JO-1 versions with chemotherapy. A) Enhancement of irinotecan (I) therapy. The experimental setting was the same as in FIG. 5B. […] N=5. […] Mammary fat pad tumors were established from primary ovarian cancer ovc316 cells. Treatment was started when tumors reached a volume of 100 mm^3 Mice were injected intravenously with 2 mg/kg JO-1 or with 0.5 mg/kg JO-4, followed by an intravenous injection of PEGylated liposomal doxorubicin (PLD) (1 mg/kg) one hour later. Treatment was repeated weekly. […] A total of 4×10^6 TNBC MDA-MB-231 cells were injected into the mammary fat pad of CB17 SCID-beige mice. JO-4 (2 mg/kg) was intravenously injected 1 hour before the application of cetuximab (C) (10 mg/kg, i.p.) and nab-paclitaxel (nab-P) (5 mg/kg, i.v). Treatment was given weekly. N=10 P<0.01 at day 25 for nab-P+C vs JO-4+nab-P+C.
A549, MDA-MB-231, and ovc316 xenograft tumors were established by injection of the corresponding tumor cells into the mammary fat pad (1:1 with Matrigel) of CB17 mice. TC1-DSG2 tumors were established by subcutaneous injection of TC1-DSG2 cells into DSG2 transgenic mice. JO-0, JO-1, JO-2, or JO-4 were intravenously injected one hour before the application of chemotherapeutic drugs: Irinotecan/Camptosar™ (Pfizer Inc., Groton, Conn.), PEGylated liposomal doxorubicin/Lipodox™ (Sun Pharmaceuticals IN, India), cetuximab/Erbitux™ (ImClone, Somerville, N.J.), nanoparticle albumin conjugated paclitaxel/Abraxane™ (Abraxis Biosciences, Summit N.J.). Tumor volumes were measured three times a week. Each treatment group consisted of a minimum of 5 mice.

[2] = target: T2, Recombinant human DSG2 protein (Leinco …); experiment: SPR (BIAcore 3000), DSG2 immobilised on the sensor chip, knobs injected at 2.5 to 10 µg/ml, BIAeval
[3] = target: T2, Recombinant human DSG2 protein (Leinco …); experiment: SPR (BIAcore 3000), DSG2 immobilised on CM4 chip, knob injected

Row | Molecule | binding result (soluble CD46) | Enhancement of irinotecan therapy (A549 xenograft tumors) | other results
1 | B1 | no binding | – | –
2 | B2 | – | not significant | Effect on TEER [1]: intermediate effects
3 | B3 | – | not significant | Effect on TEER [1]: intermediate effects
4 | B4 | – | increased irinotecan therapy significantly more than JO-1; also recorded: significant from day 20 on | TEER compared to JO-1 [1]: significantly higher
5 | B5 | – | – | TEER compared to JO-1 [1]: significantly higher
6 | B6 | no binding | – | –
7 | B7 | no binding | – | –
8 | B8 | no binding | – | –
9 | B9 | no binding | – | –
10 | B10 | – | – | Kd [2]: 10.1 µM; koff [2]: 0.00572 s⁻¹; kon [2]: 527 M⁻¹ s⁻¹; Kd [3]: 10 µM
